# Measurements published in patent US12258605B2, “Alkane oxidation by modified hydroxylases” (The California Institute of Technology, priority 2005, dated 2025).
# B1: P450PMO: P450 BM-3 variant, SEQ ID NO:125; 7-7 plus G443A and D698G; propane monooxygenase (protein)
# chain: TIKEMPQPKTFGELKNLPLLNTDKPVQALMKIADELGEIFKFEAPGCVTRYISSQRLIKEACDESRFDKNLSQELKFFRDFGGDGLFTSWTHEINWKKAHNILLPSFSQQAMKGYHAMMVDIAVQLVQKWERLNADEHIEVSEDMTRLTLDTIGLCGFNYRFNSFYRDQPHPFIISMVRALDEVMNKPQRANPDDPAYDENKRQCQEDIKVMNDLVDKIIADRKARGEQSDDLLTQMLNGKDPETGEPLDDGNISYQIITFLIAGHETTSGLLSFALYFLVKNPHVLQKVVEEAARVLVDPVPSYKQVKQLKYVGMVLNEALRLWPTFPAFSLYAKEDTVLGGEYPLEKGDEVMVLIPQLHRDKTVWGDDVEEFRPERFENPSAIPQHAFKPFGNGQRACIGQQFALHEATLVLGMMLKHFDFEDHTNYELDIKETLTLKPEAFVVKAKSKKIPLGGIPSPSTGQSAKKVRKKAENAHNTPLLVLYGSNMGTAEGTARDLADIAMSKGFAPQVATLDSHAGNLPREGAVLIVTASYNGHPPDNAKQFVDWLDQASADEVKGVRYSVFGCGDKNWATTYQKVPAFIDETLAAKGAENIADRGEADASDDFEGTYEEWREHMWSDVAAYFNLDIENSEDNKSTLSLQFVDSAADMPLAKMHGAFSTNVVASKELQQPGSARSTRHLEIELPKEASYQEGGHLGVIPRNYEGTVNRVTARFGLDASQQIRLEAEEEKLAHLPLAKTVSVEELLQYVELQDPVTRTQLRAMAAKTVCPPHKVELEALLEKQAYKEQVLAKRLTMLELLEKYPACEMKFSEFIALLPSIRPRYYSISSSPRVDEKQASITVSVVSGEAWSGYGEYKGIASNYLAELQEGDTITCFISTPQSEFTLPKDPETPLIMVGPGTGVAPFRGFVQARKQLKEQGQSLGEAHLYFGCRSPHEDYLYQEELENAQSEGIITLHTAFSRMPNQPKTYVQHVMEQDGKKLIELLDQGAHFYICGDGSQMAPAVEATLMKSYADVHQVSEADARLWLQQLEEKGRYAKDVWAG
# modifications: Mutant P450PMO protein sequence
# notes: 7-7 plus G443A and D698G; propane monooxygenase
# Assay: NADPH oxidation rates and coupling for propane hydroxylation (Example 4)
# Format: biochemical
# Conditions: propanol formation rate/NADPH oxidation rate
# Protocol: Determination of NADPH oxidation rates. Initial rates of NADPH oxidation were measured using propane-saturated 100 mM KPi pH 8.0 buffer, purified enzyme at 50-200 nM, and a saturating concentration of NADPH (200 μM). The absorbance decrease at 340 nm was monitored at 25° C. in a BioSpec-1601 UV/VIS spectrophotometer (Shimadzu, Columbia, MD) for 1 min. Rates were calculated over the first 20 seconds using NADPH extinction coefficient ε340=6210 M^−1 cm^−1. Rates were determined in triplicate. Coupling values were calculated from the ratio of propanol formation rate to NADPH oxidation rate in the presence of propane.
molecule,measurement,value
B1,coupling efficiency for propane hydroxylation,90%
